# From publication doi:10.1101/2025.08.08.669345
# Columns and labels:
# [1] = target: mouse melanocortin 4 receptor (mouse) (UniProt P56450)
# [2] = target: mouse melanocortin 1 receptor (mouse) (UniProt Q01727)
# Chain of UniProt Q01727 (Q01727 whole entry): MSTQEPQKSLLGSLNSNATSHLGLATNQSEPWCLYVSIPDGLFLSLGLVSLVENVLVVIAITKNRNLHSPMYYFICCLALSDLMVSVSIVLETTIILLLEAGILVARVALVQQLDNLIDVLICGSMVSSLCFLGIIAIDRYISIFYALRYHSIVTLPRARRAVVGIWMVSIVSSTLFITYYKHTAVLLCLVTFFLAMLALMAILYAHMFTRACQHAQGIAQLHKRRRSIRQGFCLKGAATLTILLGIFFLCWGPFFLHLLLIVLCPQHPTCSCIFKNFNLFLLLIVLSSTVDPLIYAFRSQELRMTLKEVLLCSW
# Chain of UniProt P56450 (P56450 whole entry): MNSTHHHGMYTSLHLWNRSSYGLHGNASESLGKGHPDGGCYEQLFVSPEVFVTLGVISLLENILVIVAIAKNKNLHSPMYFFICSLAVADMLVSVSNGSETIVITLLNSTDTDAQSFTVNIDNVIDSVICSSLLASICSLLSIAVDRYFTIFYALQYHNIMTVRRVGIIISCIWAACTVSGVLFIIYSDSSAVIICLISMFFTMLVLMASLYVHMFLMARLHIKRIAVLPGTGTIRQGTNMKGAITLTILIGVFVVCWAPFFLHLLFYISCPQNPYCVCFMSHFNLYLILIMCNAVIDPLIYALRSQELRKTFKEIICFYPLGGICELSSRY
substance,measurement,setting,value
α-melanocyte-stimulating hormone (peptide),"EC50 of cAMP production (EPAC BRET sensor), HEK293 cells expressing mMC4R, 3 min",[1],11.5 nM
same,"EC50 of cAMP production (EPAC BRET sensor), HEK293 cells expressing mMC1R, 3 min",[2],4.8 nM
